Test results reported in patent US20080181886A1 (Genentech, published 2008).

T1: TRX-APRIL (mouse, UniProt Q9D777 104-241)
T1 construct: Named only as TRX-APRIL
T1 sequence (looked up): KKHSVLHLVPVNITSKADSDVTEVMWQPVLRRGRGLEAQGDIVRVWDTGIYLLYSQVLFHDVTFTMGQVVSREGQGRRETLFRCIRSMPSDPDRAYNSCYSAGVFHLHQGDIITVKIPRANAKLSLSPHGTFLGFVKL

T2: Murine APRIL (mouse, UniProt Q9D777 105-241, limits assumed)
T2 sequence (looked up): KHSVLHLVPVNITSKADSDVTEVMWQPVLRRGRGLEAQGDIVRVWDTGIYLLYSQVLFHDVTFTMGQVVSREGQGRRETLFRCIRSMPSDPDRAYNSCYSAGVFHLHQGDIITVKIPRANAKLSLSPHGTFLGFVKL


What was measured:
[1] = target: T1, TRX-APRIL; assay: SPR competition: ligand in solution against immobilized BCMA-Fc
Procedure: (§1) Surface plasmon resonance (SPR) measurements on a BIAcore 3000 instrument (Pharmacia Biosensor) were used to measure binding affinities of receptors to immobilized APRIL and BAFF by competition binding. […] In all experiments flow cell 1 was ethanolamine-blocked and used as the reference cell. Washing with 10 mM HCl regenerated flow cells between sample injections. […] The concentration of ligand that provided a slope of about 1 for the initial on-rate of the observed sensorgrams was selected as the fixed concentration to be used in the competition experiments. In all experiments where BAFE was the ligand, the buffer used was composed of 10 mM HEPES, pH 7.2, 150 mM NaCl, and 0.005% Tween-20. In all experiments where TRX-APRIL was the ligand selected, the buffer was composed of 20 mM Tris-HCl, pH 8.0, 200 mM NaCl, and 0.005% Tween-20. […] A linear fit of the initial on-rate of the observed sensorgrams was used to calculate the binding rate (V). The IC₅₀ values were calculated using a four-parameter curve fit (y=((m1−m4)/(1+(m0/m3)̂m2))+m4) of the initial binding rates for the receptor/control (Vᵢ/Vₒ) as a function of receptor concentration.

[2] = target: T3, human BAFF (human, UniProt Q9Y275 82-285, limits assumed); assay: as above
Procedure: as §1

[3] = target: T2, Murine APRIL; assay: NNS library, phage display;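 further: ligand versus display occurrence-to-degeneracy ratio and higher means enriched by binding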
[4] = target: T3, human BAFF; assay: NNS library, phage display;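 further: ligand versus display occurrence-to-degeneracy ratio and higher means enriched by binding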
[5] = target: T2, Murine APRIL; assay: shotgun scan, phage display
[6] = target: T3, human BAFF; assay: shotgun scan, phage display

T3 sequence (Q9Y275 82-285 limits assumed): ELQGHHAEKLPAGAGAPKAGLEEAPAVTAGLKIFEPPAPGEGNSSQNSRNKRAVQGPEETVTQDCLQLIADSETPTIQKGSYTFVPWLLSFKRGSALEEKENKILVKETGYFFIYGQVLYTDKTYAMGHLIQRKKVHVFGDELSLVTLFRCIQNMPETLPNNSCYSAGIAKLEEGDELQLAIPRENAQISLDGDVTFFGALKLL

Row | Binder | IC50 [1] [nM] | IC50 [2] [nM] | F' APRIL [3] | F' BAFF [4] | F (APRIL) [5] | F (BAFF) [6]
1 | GSPWSLSCRKEQGKFYDHLLRDCISCASICGQHPKQCAYFCENKLR (receptor, E. coli, cleaved from TRX-His fusion; residue numbers are those of native human TACI (293 aa); also called TACI CRD2) [TACI_d2 (second cysteine-rich domain, CRD2, residues 68-109 of human TACI)] | 6 | 2 | – | – | – | –
2 | SLSCRKEQGKAYDHLLRDCISCASICGQHPKQCAYFCENKLR (receptor, phage library variant, format as m9) [TACI_d2 F78A] | – | – | 0 | 0 | 29 | 1.1
3 | SLSCRKEQGKFYDHLLRDCISCASTCGQHPKQCAYFCENKLR (receptor, phage library variant, format as m9) [TACI_d2 I92T] | – | – | 3 | 7 | 6 | 0.9
4 | SLSCRKEQGKFYDHLLRDCISCASICGQHPKQCADFCENKLR (receptor, phage library variant, format as m9) [TACI_d2 Y102D] | – | – | – | – | 0.8 | 0.6
5 | SLSCRKEQGKVYDHLLRDCISCASICGQHPKQCAYFCENKLR (receptor, phage library variant, format as m9) [TACI_d2 F78V] | – | – | 1 | 1 | 5.2 | 0.8
6 | SLSCRKEQGKFYDHLLRDCISCASVCGQHPKQCAYFCENKLR (receptor, phage library variant, format as m9) [TACI_d2 I92V] | – | – | 6 | 9 | 3.3 | 0.5
